From article PMC2935290 come the findings set out here.

This experiment concerns the target HLA-DPB1*0101 (human (endogenous in VAVY)). Briefly: radioligand binding.

… A7W (peptide) yielded an other of 3.1.
